# Data: patent publication US20230407373A1 (priority 2020, published 2023)
# Read-outs that look alike come from different tables or passages of the source.
# B1: MTPAP (protein, UniProt Q9NVV4 38-582, looked up)
# Poly(A) RNA polymerase, …: KDLRRDEQPSGSVETGFEDKIPKRRFSEMQNERREQAQRTVLIHCPEKISENKFLKYLSQFGPINNHFFYESFGLYAVVEFCQKESIGSLQNGTHTPSTAMETAIPFRSRFFNLKLKNQTSERSRVRSSNQLPRSNKQLFELLCYAESIDDQLNTLLKEFQLTEENTKLRYLTCSLIEDMAAAYFPDCIVRPFGSSVNTFGKLGCDLDMFLDLDETRNLSAHKISGNFLMEFQVKNVPSERIATQKILSVLGECLDHFGPGCVGVQKILNARCPLVRFSHQASGFQCDLTTNNRIALTSSELLYIYGALDSRVRALVFSVRCWARAHSLTSSIPGAWITNFSLTMMVIFFLQRRSPPILPTLDSLKTLADAEDKCVIEGNNCTFVRDLSRIKPSQNTETLELLLKEFFEYFGNFAFDKNSINIRQGREQNKPDSSPLYIQNPFETSLNISKNVSQSQLQKFVDLARESAWILQQEDTDRPSISSNRPWGLVSLLLPSAPNRKSFTKKKSNKFAIETVKNLLESLKGNRTENFTKTSGKRTISTQT
# B2: SLC25A5 (protein, UniProt P05141 1-298, looked up)
# ADP/ATP translocase 2: MTDAAVSFAKDFLAGGVAAAISKTAVAPIERVKLLLQVQHASKQITADKQYKGIIDCVVRIPKEQGVLSFWRGNLANVIRYFPTQALNFAFKDKYKQIFLGGVDKRTQFWLYFAGNLASGGAAGATSLCFVYPLDFARTRLAADVGKAGAEREFRGLGDCLVKIYKSDGIKGLYQGFNVSVQGIIIYRAAYFGIYDTAKGMLPDPKNTHIVISWMIAQTVTAVAGLTSYPFDTVRRRMMMQSGRKGTDIMYTGTLDCWRKIARDEGGKAFFKGAWSNVLRGMGGAFVLVLYDEIKKYT
# B3: SLC2A1 (protein, UniProt P11166 1-492, looked up)
# Solute carrier family 2, …: MEPSSKKLTGRLMLAVGGAVLGSLQFGYNTGVINAPQKVIEEFYNQTWVHRYGESILPTTLTTLWSLSVAIFSVGGMIGSFSVGLFVNRFGRRNSMLMMNLLAFVSAVLMGFSKLGKSFEMLILGRFIIGVYCGLTTGFVPMYVGEVSPTALRGALGTLHQLGIVVGILIAQVFGLDSIMGNKDLWPLLLSIIFIPALLQCIVLPFCPESPRFLLINRNEENRAKSVLKKLRGTADVTHDLQEMKEESRQMMREKKVTILELFRSPAYRQPILIAVVLQLSQQLSGINAVFYYSTSIFEKAGVQQPVYATIGSGIVNTAFTVVSLFVVERAGRRTLHLIGLAGMAGCAILMTIALALLEQLPWMSYLSIVAIFGFVAFFEVGPGPIPWFIVAELFSQGPRPAAIAVAGFSNWTSNFIVGMCFQYVEQLCGPYVFIIFTVLLVLFFIFTYFKVPETKGRTFDEIASGFRQGGASQSDKTPEELFHPLGADSQV
# B4: RBM39 (protein, UniProt Q14498 2-530, looked up)
# RNA-binding protein 39: ADDIDIEAMLEAPYKKDENKLSSANGHEERSKKRKKSKSRSRSHERKRSKSKERKRSRDRERKKSKSRERKRSRSKERRRSRSRSRDRRFRGRYRSPYSGPKFNSAIRGKIGLPHSIKLSRRRSRSKSPFRKDKSPVREPIDNLTPEERDARTVFCMQLAARIRPRDLEEFFSTVGKVRDVRMISDRNSRRSKGIAYVEFVDVSSVPLAIGLTGQRVLGVPIIVQASQAEKNRAAAMANNLQKGSAGPMRLYVGSLHFNITEDMLRGIFEPFGRIESIQLMMDSETGRSKGYGFITFSDSECAKKALEQLNGFELAGRPMKVGHVTERTDASSASSFLDSDELERTGIDLGTTGRLQLMARLAEGTGLQIPPAAQQALQMSGSLAFGAVAEFSFVIDLQTRLSQQTEASALAAAASVQPLATQCFQLSNMFNPQTEEEVGWDTEIKDDVIEECNKHGGVIHIYVDKNSAQGNVYVKCPSIAAAIAAVNALHGRWFAGKMITAAYVPLPTYHNLFPDSMTATQLLVPSRR
# B5: TRMT10C (protein, UniProt Q7L0Y3 40-403, looked up)
# tRNA methyltransferase 10 …: MSSKIPAVTYPKNESTPPSEELELDKWKTTMKSSVQEECVSTISSSKDEDPLAATREFIEMWRLLGREVPEHITEEELKTLMECVSNTAKKKYLKYLYTKEKVKKARQIKKEMKAAAREEAKNIKLLETTEEDKQKNFLFLRLWDRNMDIAMGWKGAQAMQFGQPLVFDMAYENYMKRKELQNTVSQLLESEGWNRRNVDPFHIYFCNLKIDGALHRELVKRYQEKWDKLLLTSTEKSHVDLFPKDSIIYLTADSPNVMTTFRHDKVYVIGSFVDKSMQPGTSLAKAKRLNLATECLPLDKYLQWEIGNKNLTLDQMIRILLCLKNNGNWQEALQFVPKRKHTGFLEISQHSQEFINRLKKAKT
# B6: HNRNPA2B1 (protein, UniProt P22626 1-353, looked up)
# Heterogeneous nuclear …: MEKTLETVPLERKKREKEQFRKLFIGGLSFETTEESLRNYYEQWGKLTDCVVMRDPASKRSRGFGFVTFSSMAEVDAAMAARPHSIDGRVVEPKRAVAREESGKPGAHVTVKKLFVGGIKEDTEEHHLRDYFEEYGKIDTIEIITDRQSGKKRGFGFVTFDDHDPVDKIVLQKYHTINGHNAEVRKALSRQEMQEVQSSRSGRGGNFGFGDSRGGGGNFGPGPGSNFRGGSDGYGSGRGFGDGYNGYGGGPGGGNFGGSPGYGGGRGGYGGGGPGYGNQGGGYGGGYDNYGGGNYGSGNYNDFGNYNQQPSNYGPMKSGNFGGSRNMGGPYGGGNYGPGGSGGSGGYGGRSRY
# B7: HNRNPF (protein, UniProt P52597 1-415, looked up)
# Heterogeneous nuclear …: MMLGPEGGEGFVVKLRGLPWSCSVEDVQNFLSDCTIHDGAAGVHFIYTREGRQSGEAFVELGSEDDVKMALKKDRESMGHRYIEVFKSHRTEMDWVLKHSGPNSADSANDGFVRLRGLPFGCTKEEIVQFFSGLEIVPNGITLPVDPEGKITGEAFVQFASQELAEKALGKHKERIGHRYIEVFKSSQEEVRSYSDPPLKFMSVQRPGPYDRPGTARRYIGIVKQAGLERMRPGAYSTGYGGYEEYSGLSDGYGFTTDLFGRDLSYCLSGMYDHRYGDSEFTVQSTTGHCVHMRGLPYKATENDIYNFFSPLNPVRVHIEIGPDGRVTGEADVEFATHEEAVAAMSKDRANMQHRYIELFLNSTTGASNGAYSSQVMQGMGVSAAQATYSGLESQSVSGCYGAGYSGQNSMGGYD
# B8: JUP (protein, UniProt P14923 1-745, looked up)
# Junction plakoglobin: MEVMNLMEQPIKVTEWQQTYTYDSGIHSGANTCVPSVSSKGIMEEDEACGRQYTLKKTTTYTQGVPPSQGDLEYQMSTTARAKRVREAMCPGVSGEDSSLLLATQVEGQATNLQRLAEPSQLLKSAIVHLINYQDDAELATRALPELTKLLNDEDPVVVTKAAMIVNQLSKKEASRRALMGSPQLVAAVVRTMQNTSDLDTARCTTSILHNLSHHREGLLAIFKSGGIPALVRMLSSPVESVLFYAITTLHNLLLYQEGAKMAVRLADGLQKMVPLLNKNNPKFLAITTDCLQLLAYGNQESKLIILANGGPQALVQIMRNYSYEKLLWTTSRVLKVLSVCPSNKPAIVEAGGMQALGKHLTSNSPRLVQNCLWTLRNLSDVATKQEGLESVLKILVNQLSVDDVNVLTCATGTLSNLTCNNSKNKTLVTQNSGVEALIHAILRAGDKDDITEPAVCALRHLTSRHPEAEMAQNSVRLNYGIPAIVKLLNQPNQWPLVKATIGLIRNLALCPANHAPLQEAAVIPRLVQLLVKAHQDAQRHVAAGTQQPYTDGVRMEEIVEGCTGALHILARDPMNRMEIFRLNTIPLFVQLLYSSVENIQRVAAGVLCELAQDKEAADAIDAEGASAPLMELLHSRNEGTATYAAAVLFRISEDKNPDYRKRVSVELTNSLFKHDPAAWEAAQSMIPINEPYGDDMDATYRPMYSSDVPLDPLEMHMDMDGDYPIDTYSDGLRPPYPTADHMLA
# B9: KPRP (protein, UniProt Q5T749 1-579, looked up)
# Keratinocyte proline-rich …: MCDQQQIQCRLPLQQCCVKGPSFCSSQSPFAQSQVVVQAPCEMQIVDCPASCPVQVCQVSDQAPCQSQTTQVKCQSKTKQVKGQAQCQSKTTQVKGQAASQSQTSSVQSQAPCQSEVSYVQCEASQPVQTCFVECAPVCYTETCYVECPVQNYVPCPAPQPVQMYRGRPAVCQPQGRFSTQCQYQGSYSSCGPQFQSRATCNNYTPQFQLRPSYSSCFPQYRSRTSFSPCVPQCQTQGSYGSFTEQHRSRSTSRCLPPPRRLQLFPRSCSPPRRFEPCSSSYLPLRPSEGFPNYCTPPRRSEPIYNSRCPRRPISSCSQRRGPKCRIEISSPCCPRQVPPQRCPVEIPPIRRRSQSCGPQPSWGASCPELRPHVEPRPLPSFCPPRRLDQCPESPLQRCPPPAPRPRLRPEPCISLEPRPRPLPRQLSEPCLYPEPLPALRPTPRPVPLPRPGQCEIPEPRPCLQPCEHPEPCPRPEPIPLPAPCPSPEPCRETWRSPSPCWGPNPVPYPGDLGCHESSPHRLDTEAPYCGPSSYNQGQESGAGCGPGDVFPERRGQDGHGDQGNAFAGVKGEAKSAYF
# B10: DSG1 (protein, UniProt Q02413 50-1049, looked up)
# Desmoglein-1: EWIKFAAACREGEDNSKRNPIAKIHSDCAANQQVTYRISGVGIDQPPYGIFVINQKTGEINITSIVDREVTPFFIIYCRALNSMGQDLERPLELRVRVLDINDNPPVFSMATFAGQIEENSNANTLVMILNATDADEPNNLNSKIAFKIIRQEPSDSPMFIINRNTGEIRTMNNFLDREQYGQYALAVRGSDRDGGADGMSAECECNIKILDVNDNIPYMEQSSYTIEIQENTLNSNLLEIRVIDLDEEFSANWMAVIFFISGNEGNWFEIEMNERTNVGILKVVKPLDYEAMQSLQLSIGVRNKAEFHHSIMSQYKLKASAISVTVLNVIEGPVFRPGSKTYVVTGNMGSNDKVGDFVATDLDTGRPSTTVRYVMGNNPADLLAVDSRTGKLTLKNKVTKEQYNMLGGKYQGTILSIDDNLQRTCTGTININIQSFGNDDRTNTEPNTKITTNTGRQESTSSTNYDTSTTSTDSSQVYSSEPGNGAKDLLSDNVHFGPAGIGLLIMGFLVLGLVPFLMICCDCGGAPRSAAGFEPVPECSDGAIHSWAVEGPQPEPRDITTVIPQIPPDNANIIECIDNSGVYTNEYGGREMQDLGGGERMTGFELTEGVKTSGMPEICQEYSGTLRRNSMRECREGGLNMNFMESYFCQKAYAYADEDEGRPSNDCLLIYDIEGVGSPAGSVGCCSFIGEDLDDSFLDTLGPKFKKLADISLGKESYPDLDPSWPPQSTEPVCLPQETEPVVSGHPPISPHFGTTTVISESTYPSGPGVLHPKPILDPLGYGNVTVTESYTTSDTLKPSVHVHDNRPASNVVVTERVVGPISGADLHGMLEMPDLRDGSNVIVTERVIAPSSSLPTSLTIHHPRESSNVVVTERVIQPTSGMIGSLSMHPELANAHNVIVTERVVSGAGVTGISGTTGISGGIGSSGLVGTSMGAGSGALSGAGISGGGIGLSSLGGTASIGHMRSSSDHHFNQTIGSASPSTARSRITKYSTVQYSK
# Test system: HCoV-OC43 gRNA and sgRNA
# Assay type: binding
# Settings: for target (unweighted spectral count, OC43 Probe II capture) / target (unweighted spectral count): tested against no-probe control; for target (unweighted spectral count, OC43 Probe II capture): FDR<10%; for target (unweighted spectral count): OC43 Probe II, infected cells; for target (unweighted spectral count, OC43 Probe II) / background (unweighted spectral count, no-probe control): type n_48_v, 48 hpi; for target (unweighted spectral count, OC43 Probe II): OC43 Probe II capture on infected cells; for background (unweighted spectral count, no-probe control): no-probe control on infected cells
Molecule,target (unweighted spectral count) (12 hpi (type n_12_v)),target (unweighted spectral count) (24 hpi (type n_24_v)),also measured
B1,4,–,"target (unweighted spectral count, OC43 Probe II capture) (24 hpi, type n_24_v): 4"
B2,6,–,–
B3,6,–,–
B4,6,10,–
B5,6,–,–
B6,28,–,"target (unweighted spectral count, OC43 Probe II): 86; background (unweighted spectral count, no-probe control): 7"
B7,13,27,"target (unweighted spectral count, OC43 Probe II capture) (36 hpi, type n_36_v): 34; target (unweighted spectral count, OC43 Probe II): 34; background (unweighted spectral count, no-probe control): 4"
B8,–,11,–
B9,–,15,–
B10,–,8,–
